Experimental data taken from patent US20220340646A1 (OSAKA CITY UNIVERSITY, published 2022).
Non-standard residues stand in square brackets, D forms with d. No end group written: not given here. pT = C[C@@H](OP(=O)(O)O)[C@H](N)C(=O)O; pS = N[C@@H](COP(=O)(O)O)C(=O)O

T1: pS199 tau peptide
T1 construct: Partial peptide of tau coated on the ELISA plate
T1 peptide: SGYS[pS]PGSPG

T2: pT212/pS214 tau peptide
T2 peptide: SRSR[pT]P[pS]LPTP

T3: pS214 tau peptide
T3 peptide: SRSRTP[pS]LPTP

T4: pT217 tau peptide
T4 construct: Partial peptide of tau coated on the ELISA plate
T4 peptide: PSLP[pT]PPTR

T5: pT212 tau peptide
T5 construct: Partial peptide of tau coated on the ELISA plate
T5 peptide: SRSR[pT]PSLPTP

T6: pS202 tau peptide
T6 construct: Partial peptide of tau coated on the ELISA plate
T6 peptide: SSPG[pS]SPGTPC

T7: pS46 tau peptide
T7 construct: Partial peptide of tau coated on the ELISA plate
T7 peptide: GLKE[pS]P


Columns and labels:
pS199 tau peptide = target: T1, pS199 tau peptide; test: peptide ELISA
pS400-BSA = target: T8, pS400-BSA (phosphorylated as its name says (pS400); conjugated to BSA); test: peptide ELISA
T8 construct: BSA-conjugated tau peptide coated on the ELISA plate

pT212/pS214 tau peptide = target: T2, pT212/pS214 tau peptide; test: peptide ELISA
pS214 tau peptide = target: T3, pS214 tau peptide; test: peptide ELISA
pT217 tau peptide = target: T4, pT217 tau peptide; test: peptide ELISA
pT212 tau peptide = target: T5, pT212 tau peptide; test: peptide ELISA
pS412-BSA = target: T9, pS412-BSA (phosphorylated as its name says (pS412); conjugated to BSA); test: peptide ELISA
T9 construct: BSA-conjugated tau peptide coated on the ELISA plate

pS202 tau peptide = target: T6, pS202 tau peptide; test: peptide ELISA
pS46 tau peptide = target: T7, pS46 tau peptide; test: peptide ELISA
[1] = target: pSer413(Im) peptide (human); test: SPR (Biacore 3000), antibody captured by anti-mouse antibody, peptide as analyte, single cycle kinetics
Chain of pSer413(Im) peptide (human) (peptide, as listed by the source): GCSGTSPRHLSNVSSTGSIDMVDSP

T9 sequence (P02769 25-607 limits assumed): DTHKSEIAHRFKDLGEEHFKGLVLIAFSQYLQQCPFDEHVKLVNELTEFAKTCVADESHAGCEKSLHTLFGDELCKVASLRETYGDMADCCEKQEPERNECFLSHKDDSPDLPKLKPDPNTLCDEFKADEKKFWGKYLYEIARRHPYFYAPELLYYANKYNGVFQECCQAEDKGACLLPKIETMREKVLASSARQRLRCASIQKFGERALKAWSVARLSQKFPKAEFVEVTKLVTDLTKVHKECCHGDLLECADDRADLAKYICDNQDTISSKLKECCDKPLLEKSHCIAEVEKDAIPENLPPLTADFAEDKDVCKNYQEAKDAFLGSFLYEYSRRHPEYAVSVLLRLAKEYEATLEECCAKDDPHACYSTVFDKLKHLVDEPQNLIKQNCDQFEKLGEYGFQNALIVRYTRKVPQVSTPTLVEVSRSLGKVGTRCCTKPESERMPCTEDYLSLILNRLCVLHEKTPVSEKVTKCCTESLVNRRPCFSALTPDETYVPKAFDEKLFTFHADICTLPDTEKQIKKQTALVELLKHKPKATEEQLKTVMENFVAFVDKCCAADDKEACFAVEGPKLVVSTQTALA
T8 sequence (P02769 25-607 limits assumed): as above

binding result (pS199 tau peptide)	binding result (pS400-BSA)	binding result (pT212/pS214 tau peptide)	binding result (pS214 tau peptide)	binding result (pT217 tau peptide)	binding result (pT212 tau peptide)	binding result (pS412-BSA)	binding result (pS202 tau peptide)	binding result (pS46 tau peptide)	Kd [1]	koff [1]	kon [1]	Binder
no binding (tested: 1 µg/mL)	no binding (tested: 1 µg/mL)	no binding (tested: 1 µg/mL)	no binding (tested: 1 µg/mL)	no binding (tested: 1 µg/mL)	no binding (tested: 1 µg/mL)	no binding (tested: 1 µg/mL)	no binding (tested: 1 µg/mL)	no binding (tested: 1 µg/mL)	3.87 nM	0.000499 s⁻¹	129000 M⁻¹ s⁻¹	Ta1505 (antibody, V domains shown, also called Ta1505-2) VH: EVQLVESGGGLVQPKGSLKLSCAASGFAFNSFALNWVRQAPGKSLEWVVHIRSKTNNYATFYADSVKDRFTVSRDDSQSMVYLQMNNLKTEDTGIYYCVRRGPRDSWFGYWGQGTLVTVSA VL: DILMTQTPLSLPVSLGDQASISCRSSQNIVHSNGNTYLEWYLQKPGQSPKVLIYTVSNRFSGVPDRFSGSGSGTDFTLKISRVEAEDLGVYYCFQGSHLPLTFGGGTKL
no binding (tested: 1 µg/mL)	no binding (tested: 1 µg/mL)	no binding (tested: 1 µg/mL)	no binding (tested: 1 µg/mL)	no binding (tested: 1 µg/mL)	no binding (tested: 1 µg/mL)	no binding (tested: 1 µg/mL)	no binding (tested: 1 µg/mL)	no binding (tested: 1 µg/mL)	6.76 nM	0.00098 s⁻¹	145000 M⁻¹ s⁻¹	Ta1508 (antibody, V domains shown, also called Ta15 Series) VH: EVHLVESGGGLVQPKGSLKLSCAASGFAFNSFAMNWVRQAPGKGLDWIAHIRSKTNNYVTFYADSVKGRFSISRDDSQSMVYLQMNNLQTEDTGIYYCVRRGPRDSWFGYWGQGTLVTVSA VL: VVLMTQTPLSLPVSLGDQASISCRSSQNIVHSNGNTYLEWYLQKPGQSPKVLIYTVSNRFSGVPDRFSGSGSGTDFTLKISRVEAEDLGVYYCFQGSHLPLTFGGGTKL
no binding (tested: 1 µg/mL)	no binding (tested: 1 µg/mL)	no binding (tested: 1 µg/mL)	no binding (tested: 1 µg/mL)	no binding (tested: 1 µg/mL)	no binding (tested: 1 µg/mL)	no binding (tested: 1 µg/mL)	no binding (tested: 1 µg/mL)	no binding (tested: 1 µg/mL)	9.75 nM	0.00194 s⁻¹	199000 M⁻¹ s⁻¹	Ta1506 (antibody, V domains shown, also called Ta15 Series) VH: EVHLVESGGGLVQPKGSLKLSCAASGFAFNSFAMNWVRQAPGKALDWIAHIRSKTNNYVTFYADSVKGRFSISRDDSQSMVYLQMNNLQTEDTGIYYCVRRGPRDSWFGYWGQGTLVTVSA VL: GVLMTQIPLSLPVSLGDQASISCRSSQNIVHSNGNTYLEWYLQKPGQSPKVLIYTVSNRFSGVPDRFSGSGSGTDFTLKISRVEAEDLGVYYCFQGSHLPLTFGGGTKL
no binding (tested: 1 µg/mL)	no binding (tested: 1 µg/mL)	no binding (tested: 1 µg/mL)	no binding (tested: 1 µg/mL)	no binding (tested: 1 µg/mL)	no binding (tested: 1 µg/mL)	no binding (tested: 1 µg/mL)	no binding (tested: 1 µg/mL)	no binding (tested: 1 µg/mL)	14.4 nM	0.00125 s⁻¹	87100 M⁻¹ s⁻¹	Ta1509 (antibody, V domains shown, also called Ta15 Series) VH: EVQLVESGGGLVQPKGSLKLSCAASGFAFNSFAMNWVRQAPGKGLDWIAHIRSKSNNYVTFYADSVKDRFIISRDDSQSMIYLQMNNLKTEDSGIYYCVRRGPRDSWFGYWGQGTLVTVSA VL: DVLMTQSPLSLPVSLGDQASISCRSSQNIVHTNGNTYLEWYLQKPGQSPKVLIYTVSNRFSGVPDRFSGSGSGTDFTLKISRVEAEDLGVYYCFQGSHLPLTFGGGTKL
no binding (tested: 1 µg/mL)	no binding (tested: 1 µg/mL)	no binding (tested: 1 µg/mL)	no binding (tested: 1 µg/mL)	no binding (tested: 1 µg/mL)	no binding (tested: 1 µg/mL)	no binding (tested: 1 µg/mL)	no binding (tested: 1 µg/mL)	no binding (tested: 1 µg/mL)	4.2 nM	0.000533 s⁻¹	127000 M⁻¹ s⁻¹	Ta1507 (antibody, V domains shown, also called Ta15 Series) VH: EIQLVESGGGLVQPKGSLKLSCAASGFAFSSFALNWVRQAPGKSLDWVAHIRSKANHYVTFYADSVKDRFTVSRDDSQSMVYLQMNNLKTEDTGIYYCVRRGPRDSWFGYWGQGTLVTVSA VL: DVLLTQTPLSLPVSLGDQASISCRSSQNIVHSNGNTYLEWYLQKPGQSPKVLIYTVSNRFSGVPDRFSGSGSGTDFTLKISRVEAEDLGVYYCFQGSHLPLTFGGGTKL
no binding (tested: 1 µg/mL)	no binding (tested: 1 µg/mL)	no binding (tested: 1 µg/mL)	no binding (tested: 1 µg/mL)	no binding (tested: 1 µg/mL)	no binding (tested: 1 µg/mL)	no binding (tested: 1 µg/mL)	no binding (tested: 1 µg/mL)	no binding (tested: 1 µg/mL)	4.2 nM	0.00047 s⁻¹	112000 M⁻¹ s⁻¹	Ta1502 (antibody, V domains shown, also called Ta15 Series) VH: EVQLVESGGGLVQPKGSLKLSCAASGFAFNSFALNWVRQAPGKSLEWVVHIRSKTNNYATFYADSVKDRFTVSRDDSQNMVYLQMNNLKTEDTGIYYCVRRGPRDSWFGYWGQGTLVTVSA VL: DILMTQTPLSLPVSLGDQASISCRSSQNIVHSNGNTYLEWYLQKPGQSPKVLIYTVSNRFSGVPDRFSGSGSGTDFTLKISRVEAEDLGVYYCFQGSHLPLTFGGGTKL
no binding (tested: 1 µg/mL)	no binding (tested: 1 µg/mL)	no binding (tested: 1 µg/mL)	no binding (tested: 1 µg/mL)	no binding (tested: 1 µg/mL)	no binding (tested: 1 µg/mL)	no binding (tested: 1 µg/mL)	no binding (tested: 1 µg/mL)	no binding (tested: 1 µg/mL)	18.6 nM	0.00105 s⁻¹	56400 M⁻¹ s⁻¹	Ta1501 (antibody, V domains shown, also called Ta15 Series) VH: EVHLVESGGELVQPKGSLKLSCAASGFAFNSFAMNWVRQTPGKGLNWVAHIRSKTNNYATFYADSVKDRFTISRDDSQNMLYLQMNNLKTEDTGIYYCVRRGPRDSWFGYWGQGTLVTVSA VL: DVLMTQTPLSLPVSLGDHASISCRSSQNIVHSNGNTYLEWYLQKPGQSPKVLIYTVSNRFSGVPDRFSGSGSGTDFTLKISRVEAEDLGVYYCFQGSHLPLTFGGGTKL
